In test [1] the target is T1, avi-Fc-human CLEC10A stalk CRD (human, biotinylated at the N-terminal Avi tag).
T1 construct: Homodimeric Fc fusion of the human CLEC10A ECD, closest homologue of ASGPR H1, used as specificity control; also called huCLEC10A stalk CRD
The experiment in a line: SPR (ProteOn XPR36), antigen captured by neutravidin, Fab as analyte.

Test [2] has as its target T2, avi-Fc-human ASGPR H1 stalk (human, biotinylated at the N-terminal Avi tag).
T2 construct: Homodimeric Fc fusion (wild type Fc); also called huASGPR H1 stalk; Fc-stalk
The description is as above.

Test [3] deals with T3, avi-Fc-human ASGPR H1 stalk CRD (human, biotinylated at the N-terminal Avi tag).
T3 construct: Homodimeric (bivalent) Fc fusion of the human ASGPR H1 ECD (stalk and CRD); also called huASGPR H1 stalk CRD; Fc-stalk-CRD
The description is as above.

The target in test [4] is T4, avi-Fc-cynomolgus ASGPR H1 stalk (cynomolgus, biotinylated at the N-terminal Avi tag).
T4 construct: Homodimeric Fc fusion (wild type Fc); also called cyASGPR H1 stalk
Described as above.

In test [5] the target is T5, avi-Fc-cynomolgus ASGPR H1 stalk CRD (cynomolgus, biotinylated at the N-terminal Avi tag).
T5 construct: Homodimeric Fc fusion of the cynomolgus ASGPR H1 ECD; also called cyASGPR H1 stalk CRD
The description is as above.

Test [6] concerns the target T6, human ASGPR H1 on ASGPR-positive hepatic cells (HepG2, primary human hepatocytes, Huh-7) (human, UniProt P07306 1-291).
T6 construct: whole, on cells; Endogenous receptor on cells; the antibodies were selected on H1; also called surface-exposed ASGPR
T6 sequence (looked up): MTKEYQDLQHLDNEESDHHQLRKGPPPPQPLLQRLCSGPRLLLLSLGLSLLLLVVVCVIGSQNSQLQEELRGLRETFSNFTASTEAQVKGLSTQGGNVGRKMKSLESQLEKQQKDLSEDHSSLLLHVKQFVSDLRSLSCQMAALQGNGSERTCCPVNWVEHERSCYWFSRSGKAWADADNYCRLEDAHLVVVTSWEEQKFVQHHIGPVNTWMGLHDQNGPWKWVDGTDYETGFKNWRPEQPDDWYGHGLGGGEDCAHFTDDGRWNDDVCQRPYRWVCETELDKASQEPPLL
The experiment in a line: FACS on HepG2 cells, purified Fab at 1.1, 3.3 and 10 µg/ml, 30 min at 4°C, FITC anti-human F(ab')2 secondary.

Test [7] deals with T7, avi-Fc-human ASGPR H1 CRD (human, UniProt P0DOX5 223-449 = IgG part, biotinylated at the N-terminal Avi tag).
T7 construct: also called Fc-CRD; hu/cyASGPR H1 CRD
The test is described as follows: SPR (ProteOn XPR36), antigen captured by neutravidin, Fab as analyte.

Test [8] addresses T7, avi-Fc-human ASGPR H1 CRD. The test is described as above. The source holds these as a separate data set.
The target of test [9] is T7, avi-Fc-human ASGPR H1 CRD. The experiment in a line: SPR (ProteOn XPR36), antigen captured by neutravidin, antibody construct as analyte.
Test [10] addresses T8, full-length human ASGPR H1 with a C-terminal SNAP tag, on transfected HEK293 cells (human, UniProt P07306 1-291, SNAP tag labeled with SNAP-Lumi4Tb (terbium)).
T8 construct: whole, on cells; Transiently expressed in HEK293 cells for the FRET assay; also called transmembrane ASGPR H1-SNAP tag fusion protein labeled with terbium
T8 sequence (looked up): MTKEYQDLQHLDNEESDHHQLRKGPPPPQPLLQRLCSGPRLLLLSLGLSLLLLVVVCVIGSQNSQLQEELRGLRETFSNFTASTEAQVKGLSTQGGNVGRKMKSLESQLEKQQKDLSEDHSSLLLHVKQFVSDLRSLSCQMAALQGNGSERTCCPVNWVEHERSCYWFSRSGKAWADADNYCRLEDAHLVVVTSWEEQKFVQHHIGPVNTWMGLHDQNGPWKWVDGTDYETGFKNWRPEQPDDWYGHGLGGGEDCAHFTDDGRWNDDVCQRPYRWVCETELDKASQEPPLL
The test is described as follows: FRET on HEK293 cells expressing terbium-labeled ASGPR H1-SNAP; IgG1 at 50-0.39 nM, anti-humanFc-d2 as acceptor.

As a reminder, the Kd is the free concentration of one partner at which half of the binding sites on the other are occupied at equilibrium, for simple one-to-one binding. A lower Kd goes with a tighter complex. One may read the koff as the first-order rate constant of dissociation. The low end stands for slow dissociation, the high end for fast dissociation. For orientation: kon means a measure of how fast the partners come together.

T4 sequence (chain, as listed by the source limits assumed): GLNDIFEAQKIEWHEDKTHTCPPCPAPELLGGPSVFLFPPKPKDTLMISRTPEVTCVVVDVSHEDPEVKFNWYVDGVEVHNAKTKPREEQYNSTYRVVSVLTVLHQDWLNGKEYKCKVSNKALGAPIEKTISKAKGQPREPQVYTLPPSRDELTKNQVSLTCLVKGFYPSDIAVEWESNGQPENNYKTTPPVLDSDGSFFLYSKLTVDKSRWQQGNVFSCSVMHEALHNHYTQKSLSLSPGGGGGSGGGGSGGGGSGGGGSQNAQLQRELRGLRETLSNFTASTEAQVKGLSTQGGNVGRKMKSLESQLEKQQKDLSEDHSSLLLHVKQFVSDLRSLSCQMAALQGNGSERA
T2 sequence (chain, as listed by the source limits assumed): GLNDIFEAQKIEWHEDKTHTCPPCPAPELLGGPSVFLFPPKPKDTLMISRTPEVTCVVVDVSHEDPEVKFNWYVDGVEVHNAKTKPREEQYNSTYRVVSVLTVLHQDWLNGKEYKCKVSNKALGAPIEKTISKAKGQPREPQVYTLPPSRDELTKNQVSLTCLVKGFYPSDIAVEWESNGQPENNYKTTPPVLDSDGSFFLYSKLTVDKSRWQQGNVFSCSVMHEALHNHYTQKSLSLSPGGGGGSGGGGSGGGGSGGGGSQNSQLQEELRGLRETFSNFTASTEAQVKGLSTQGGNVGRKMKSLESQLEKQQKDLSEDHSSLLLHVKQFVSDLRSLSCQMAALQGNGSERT
T1 sequence (chain, as listed by the source limits assumed): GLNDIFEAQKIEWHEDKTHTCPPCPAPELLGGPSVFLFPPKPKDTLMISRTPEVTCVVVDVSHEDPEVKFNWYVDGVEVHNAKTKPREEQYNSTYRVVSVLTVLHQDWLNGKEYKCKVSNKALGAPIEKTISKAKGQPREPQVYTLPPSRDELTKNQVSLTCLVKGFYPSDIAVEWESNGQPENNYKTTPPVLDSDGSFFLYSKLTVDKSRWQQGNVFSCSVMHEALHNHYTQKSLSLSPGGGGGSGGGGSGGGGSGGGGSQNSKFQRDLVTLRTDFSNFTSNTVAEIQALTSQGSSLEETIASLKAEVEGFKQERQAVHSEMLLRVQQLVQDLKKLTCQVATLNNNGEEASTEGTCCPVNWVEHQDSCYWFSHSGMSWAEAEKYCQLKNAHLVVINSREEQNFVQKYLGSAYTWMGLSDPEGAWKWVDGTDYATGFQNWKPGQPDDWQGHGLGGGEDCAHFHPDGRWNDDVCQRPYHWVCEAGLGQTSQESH

B1: 4F3 Fab (Fab, V domains shown)
VH: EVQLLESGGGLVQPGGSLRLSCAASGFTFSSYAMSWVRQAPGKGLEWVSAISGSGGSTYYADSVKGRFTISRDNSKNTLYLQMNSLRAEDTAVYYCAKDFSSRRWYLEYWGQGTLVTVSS
VL: SSELTQDPAVSVALGQTVRITCQGDSLRSYYASWYQQKPGQAPVLVIYGKNNRPSGIPDRFSGSSSGNTASLTITGAQAEDEADYYCNSLERIGYLSYVFGGGTKLTVL
notes: Human lambda Fab from E. coli; also called clone 4F3
With B1, the binding result in test [1] is “no binding”. For the same molecule, the dissociation constant (Kd) in test [2] is 29.5 nM; in test [3], 18.2 nM; in test [4] it was 33.6 nM; in test [5], 21.6 nM. The koff in test [2] was determined as 0.00445 s⁻¹; in test [3], 0.00408 s⁻¹; in test [4], 0.0048 s⁻¹; in test [5], 0.00365 s⁻¹. Also, the kon in test [2] was 151000 M⁻¹ s⁻¹; in test [3], 224000 M⁻¹ s⁻¹; in test [4], 143000 M⁻¹ s⁻¹; in [5], 169000 M⁻¹ s⁻¹.

B2: 51A12_E7 Fab (Fab, V domains shown)
VH: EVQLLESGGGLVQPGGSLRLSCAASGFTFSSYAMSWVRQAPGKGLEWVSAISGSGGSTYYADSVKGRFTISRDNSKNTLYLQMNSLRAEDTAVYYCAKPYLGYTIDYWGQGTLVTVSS
VL: SSELTQDPAVSVALGQTVRITCQGDSLRSYYASWYQQKPGQAPVLVIYGKNNRPSGIPDRFSGSSSGNTASLTITGAQAEDEADYYCNSRDYRYNRAVRPFGGGTKLTVL
notes: Fab
For the molecule B2, the binding result in test [6] is given as “binds”. In [7], this molecule yielded a dissociation constant Kd of 0.448 nM, a koff of 9.64e-05 s⁻¹ and a kon of 215000 M⁻¹ s⁻¹.

B3: 51A12 Fab (Fab, V domains shown)
VH: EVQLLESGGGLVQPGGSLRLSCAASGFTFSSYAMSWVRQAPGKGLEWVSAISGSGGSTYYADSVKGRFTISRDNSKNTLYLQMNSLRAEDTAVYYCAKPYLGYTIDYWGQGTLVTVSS
VL: SSELTQDPAVSVALGQTVRITCQGDSLRSYYASWYQQKPGQAPVLVIYGKNNRPSGIPDRFSASSSGNTASLTITGAQAEDEADYYCNSRDICCNRSVRNFGGGTKLTVL
notes: Human lambda Fab from E. coli, purified by IMAC; also called clone 51A12; parental clone 51A12
Take B3: the Kd in test [8] was 0.57 nM; in [7], 0.57 nM; in test [9], 0.571 nM. The koff in test [8], in test [7] and in test [9] was 6.28e-05 s⁻¹ each time. In addition, the kon in [8], in test [7] and in test [9] was 110000 M⁻¹ s⁻¹ throughout.

B4: 51A12 S116A Fab (Fab, V domains shown)
VH: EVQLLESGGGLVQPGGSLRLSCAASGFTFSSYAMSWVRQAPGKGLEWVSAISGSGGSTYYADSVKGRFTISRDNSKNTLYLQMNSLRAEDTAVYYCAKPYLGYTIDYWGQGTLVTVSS
VL: SSELTQDPAVSVALGQTVRITCQGDSLRSYYASWYQQKPGQAPVLVIYGKNNRPSGIPDRFSASSSGNTASLTITGAQAEDEADYYCNSRDICCNRAVRNFGGGTKLTVL
notes: Fab
Take B4: the binding result in test [6] is “binds”. In test [7], this molecule displayed a Kd of 1.43 nM, a koff of 0.000178 s⁻¹ and a kon of 131000 M⁻¹ s⁻¹.

B5: 51A12_C1 Fab (Fab, V domains shown)
VH: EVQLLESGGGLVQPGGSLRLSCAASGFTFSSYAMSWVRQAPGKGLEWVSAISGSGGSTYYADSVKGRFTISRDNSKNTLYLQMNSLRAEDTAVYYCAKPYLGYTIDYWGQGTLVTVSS
VL: SSELTQDPAVSVALGQTVRITCQGDSLRSYYASWYQQKPGQAPVLVIYGKNNRPSGIPDRFSGSSSGNTASLTITGAQAEDEADYYCNSRSYAFNRVVRNFGGGTKLTVL
notes: Fab
For B5, the binding result in test [6] was “binds”. In test [7], this molecule registered an equilibrium dissociation constant (Kd) of 0.241 nM, a dissociation rate constant (koff) of 4.19e-05 s⁻¹ and a kon of 174000 M⁻¹ s⁻¹.

B6: 51A12_D1 Fab (Fab, V domains shown)
VH: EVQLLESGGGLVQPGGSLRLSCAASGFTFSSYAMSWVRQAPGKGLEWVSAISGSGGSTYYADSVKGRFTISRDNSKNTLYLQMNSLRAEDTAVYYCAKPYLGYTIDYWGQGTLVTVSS
VL: SSELTQDPAVSVALGQTVRITCQGDSLRSYYASWYQQKPGQAPVLVIYGKNNRPSGIPDRFSGSSSGNTASLTITGAQAEDEADYYCNSRTYSYNRAVRPFGGGTKLTVL
notes: Fab
Regarding B6, the binding result in test [6] is listed as “binds”. Besides, in [7], the affinity, expressed as Kd, was 0.221 nM; the koff was found to be 8.85e-05 s⁻¹; the kon came out at 400000 M⁻¹ s⁻¹.

B7: 51A12_A6 Fab (Fab, V domains shown)
VH: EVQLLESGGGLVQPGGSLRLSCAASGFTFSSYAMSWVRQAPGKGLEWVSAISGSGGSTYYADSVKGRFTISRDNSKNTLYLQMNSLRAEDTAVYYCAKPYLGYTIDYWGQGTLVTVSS
VL: SSELTQDPAVSVALGQTVRITCQGDSLRSYYASWYQQKPGQAPVLVIYGKNNRPSGIPDRFSGSSSGNTASLTITGAQAEDEADYYCNSRTYSYNRAVRNFGGGTKLTVL
notes: Fab; also called Variant 51A12_A6
With B7, in test [6], the binding result is “binds”. In test [7], this molecule had a dissociation constant Kd of 0.0801 nM, an off-rate constant (koff) of 2.61e-05 s⁻¹ and a kon of 326000 M⁻¹ s⁻¹.

B8: 51A12_C7 Fab (Fab, V domains shown)
VH: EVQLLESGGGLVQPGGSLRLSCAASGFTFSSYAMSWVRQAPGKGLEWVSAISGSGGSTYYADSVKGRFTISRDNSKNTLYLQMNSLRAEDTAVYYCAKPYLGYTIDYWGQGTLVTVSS
VL: SSELTQDPAVSVALGQTVRITCQGDSLRSYYASWYQQKPGQAPVLVIYGKNNRPSGIPDRFSGSSSGNTASLTITGAQAEDEADYYCNSRDIRYNRVVRPFGGGTKLTVL
notes: Fab
Turning to B8, in test [6], the binding result is given as “binds”. In test [7], the affinity, expressed as Kd, was 0.235 nM; the koff was 4.67e-05 s⁻¹; the kon worked out at 199000 M⁻¹ s⁻¹.

B9: 51A12_H6 Fab (Fab, V domains shown)
VH: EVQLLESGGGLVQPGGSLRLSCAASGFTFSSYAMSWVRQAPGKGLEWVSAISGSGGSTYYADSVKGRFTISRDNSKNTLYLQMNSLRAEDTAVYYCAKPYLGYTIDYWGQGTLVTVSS
VL: SSELTQDPAVSVALGQTVRITCQGDSLRSYYASWYQQKPGQAPVLVIYGKNNRPSGIPDRFSGSSSGNTASLTITGAQAEDEADYYCNSRDYKWNRVVRHFGGGTKLTVL
notes: Fab
For the molecule B9, in test [6], the binding result was “binds”. In test [7], this molecule registered a Kd of 0.325 nM, a koff of 2.79e-05 s⁻¹ and an association rate constant (kon) of 86000 M⁻¹ s⁻¹.

B10: 51A12_H3 Fab (Fab, V domains shown)
VH: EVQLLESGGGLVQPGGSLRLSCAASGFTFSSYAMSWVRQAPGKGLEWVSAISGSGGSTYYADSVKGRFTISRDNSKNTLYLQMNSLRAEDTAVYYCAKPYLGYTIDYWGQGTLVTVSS
VL: SSELTQDPAVSVALGQTVRITCQGDSLRSYYASWYQQKPGQAPVLVIYGKNNRPSGIPDRFSGSSSGNTASLTITGAQAEDEADYYCNSRDYKFNRVVRNFGGGTKLTVL
notes: Fab
As to B10, the binding result in [6] was “binds”. In test [7], this molecule gave a dissociation constant Kd of 0.51 nM, an off-rate (koff) of 8.3e-05 s⁻¹ and a kon of 163000 M⁻¹ s⁻¹.

B11: R9E10 Fab (Fab, V domains shown)
VH: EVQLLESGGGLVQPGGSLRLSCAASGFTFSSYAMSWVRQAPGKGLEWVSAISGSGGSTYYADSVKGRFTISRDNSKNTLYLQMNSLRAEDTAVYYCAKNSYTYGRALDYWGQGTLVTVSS
VL: SSELTQDPAVSVALGQTVRITCQGDSLRSYYASWYQQKPGQAPVLVIYGKNNRPSGIPDRFSGSSSGNTASLTITGAQAEDEADYYCNSRNVRGKLVFGGGTKLTVL
notes: Human lambda Fab from E. coli
On to B11, for which, in test [1], the binding result is given as “no binding”. In [3], the affinity, expressed as Kd, was 3.6 nM; the koff was found to be 0.00211 s⁻¹; the on-rate (kon) amounted to 586000 M⁻¹ s⁻¹. In test [5], this molecule yielded a Kd of 4.34 nM, a koff of 0.00199 s⁻¹ and an on-rate constant (kon) of 460000 M⁻¹ s⁻¹.

B12: R5C2 Fab (Fab, V domains shown)
VH: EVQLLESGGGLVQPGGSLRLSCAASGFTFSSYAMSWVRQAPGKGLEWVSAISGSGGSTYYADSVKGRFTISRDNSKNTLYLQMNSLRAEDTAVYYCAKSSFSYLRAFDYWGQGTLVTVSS
VL: SSELTQDPAVSVALGQTVRITCQGDSLRSYYASWYQQKPGQAPVLVIYGRNNRPSGIPDRFSGSSSGNTASLTITGAQAEDEADYYCNSRDRRGYSVFGGGTKLTVL
notes: Human lambda Fab from E. coli
On to B12, for which the binding result in test [1] is recorded as “no binding”. For the same molecule, in test [3], the affinity, expressed as Kd, was 2.65 nM; the koff came out at 0.00112 s⁻¹; the kon was found to be 423000 M⁻¹ s⁻¹. In [5], this molecule had a Kd of 3.41 nM, an off-rate (koff) of 0.00114 s⁻¹ and a kon of 334000 M⁻¹ s⁻¹.

B13: 51A12 A82G S116A Fab (Fab, V domains shown)
VH: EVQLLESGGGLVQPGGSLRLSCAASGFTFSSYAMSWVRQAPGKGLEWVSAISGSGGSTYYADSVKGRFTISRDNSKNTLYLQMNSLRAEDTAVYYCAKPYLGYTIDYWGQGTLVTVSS
VL: SSELTQDPAVSVALGQTVRITCQGDSLRSYYASWYQQKPGQAPVLVIYGKNNRPSGIPDRFSGSSSGNTASLTITGAQAEDEADYYCNSRDICCNRAVRNFGGGTKLTVLG
notes: Light chain variant of 51A12 with the parental heavy chain; To be rechecked
B13: in [7], the affinity, expressed as Kd, was 1.25 nM; the koff came to 0.00016 s⁻¹; the on-rate (kon) came out at 127000 M⁻¹ s⁻¹.

B14: R7E12 IgG (antibody, V domains shown)
VH: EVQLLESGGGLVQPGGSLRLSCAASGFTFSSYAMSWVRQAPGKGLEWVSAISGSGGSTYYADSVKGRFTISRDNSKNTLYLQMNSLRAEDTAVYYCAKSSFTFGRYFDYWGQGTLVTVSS
VL: SSELTQDPAVSVALGQTVRITCQGDSLRSYYASWYQQKPGQAPVLVIYGKNNRPSGIPDRFSGSSSGNTASLTITGAQAEDEADYYCNSRKSSSKNVVFGGGTKLTVL
notes: To be rechecked
In the case of B14, the dissociation constant (Kd) in test [10] was found to be 22 nM.

B15: 52C4 Fab (Fab, V domains shown)
VH: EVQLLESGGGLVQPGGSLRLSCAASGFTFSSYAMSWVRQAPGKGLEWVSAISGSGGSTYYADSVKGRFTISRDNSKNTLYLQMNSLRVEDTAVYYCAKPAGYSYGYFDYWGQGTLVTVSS
VL: SSELTQDPAVSVALGQTVRITCQGDSLRSYYASWYQQKPGQAPVLVIYGKNNRPSGIPDRFSGSSSGNTASLTITGAQAEDEADYYCNSGASSGNQLVFGGGTKLTVL
notes: Human lambda Fab from E. coli
Turning to B15, in test [1], the binding result is given as “no binding”. In [8], this molecule had a Kd of 28.6 nM, a koff of 0.00396 s⁻¹ and a kon of 139000 M⁻¹ s⁻¹. In [9], this molecule gave a dissociation constant Kd of 28.6 nM, a koff of 0.00396 s⁻¹ and a kon of 139000 M⁻¹ s⁻¹.

B16: R7E12 Fab (Fab, V domains shown)
VH: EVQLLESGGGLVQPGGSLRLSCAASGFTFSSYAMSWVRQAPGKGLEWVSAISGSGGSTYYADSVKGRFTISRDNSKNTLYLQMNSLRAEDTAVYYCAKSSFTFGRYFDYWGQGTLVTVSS
VL: SSELTQDPAVSVALGQTVRITCQGDSLRSYYASWYQQKPGQAPVLVIYGKNNRPSGIPDRFSGSSSGNTASLTITGAQAEDEADYYCNSRKSSSKNVVFGGGTKLTVL
notes: To be rechecked
Regarding B16, in [1], the binding result is “no binding”. In [3], this molecule had an equilibrium dissociation constant (Kd) of 9.12 nM, a koff of 0.00268 s⁻¹ and a kon of 294000 M⁻¹ s⁻¹. In test [5], this molecule came in with a dissociation constant Kd of 9.55 nM, a koff of 0.00236 s⁻¹ and an on-rate constant (kon) of 247000 M⁻¹ s⁻¹.

The values above are taken from patent US20190031760A1 (Hoffmann-La Roche, published 2019).
